Measured values from paper PMC6419104, “Structural basis of guanine nucleotide exchange for Rab11 by SH3BP5” (Life Science Alliance, 2019).
Numbering of substitutions follows the chain as printed. Names and notes keep the numbering of the source. One block for each binder: values may come before it.

Columns and labels:
[1] = biological target: Rab11a (1–211) E39A (human) (UniProt P62491)
[2] = biological target: Rab11a (1–211) L38A (human) (UniProt P62491)
[3] = biological target: Rab11a (1–211) S40A (human) (UniProt P62491)
[4] = biological target: Rab11a (1–211) S42A (human) (UniProt P62491)
[5] = biological target: Rab11a (1–211) K41A (human) (UniProt P62491)
[6] = biological target: Rab11a (1–173) (human) (UniProt P62491)
[7] = biological target: T1, SH3BP5 (10–276) (human, UniProt O60239 10-276); test: crystal structure; SH3BP5 (10–276)–Rab11a (1–173) complex at 6.2 g/l, sitting drop vapor diffusion at 20°C; reservoir 0.4–0.75 M NaCl, 0.1 M NaH2PO4 (pH 6.8), 15–17% PEG2000; 3.8 Å; four complexes in the asymmetric unit; conditions: both partners purified
T1 construct: Residues 10–41 and 268–276 were invisible in the electron density; The purification of this construct and of the complex is not described; also called wild-type SH3BP5 (10–276); source: E. coli Rosetta (DE3)
T1 sequence (looked up): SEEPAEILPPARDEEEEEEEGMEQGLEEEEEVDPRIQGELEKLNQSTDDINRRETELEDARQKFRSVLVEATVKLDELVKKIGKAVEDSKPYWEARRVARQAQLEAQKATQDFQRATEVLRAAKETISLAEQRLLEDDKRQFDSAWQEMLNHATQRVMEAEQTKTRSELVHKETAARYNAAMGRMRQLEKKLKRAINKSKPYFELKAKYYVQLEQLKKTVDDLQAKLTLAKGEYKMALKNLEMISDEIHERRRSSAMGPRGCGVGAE

GEF activity: Mant-GDP release from Rab11a by fluorescence, with GppNHp (% of the wild-type activity) [1]: 50 | GEF activity: Mant-GDP release from Rab11a by fluorescence, with GppNHp (% of the wild-type activity) [2]: 50 | GEF activity: Mant-GDP release from Rab11a by fluorescence, with GppNHp (% of the wild-type activity) [3]: 25 | GEF activity: Mant-GDP release from Rab11a by fluorescence, with GppNHp (% of the wild-type activity) [4]: 25 | GEF activity: Mant-GDP release from Rab11a by fluorescence, with GppNHp (% of the wild-type activity) [5]: 25
B1: SH3BP5 (41–266; R260A/R261A/R262A) (domain or fragment)
chain: VDPRIQGELEKLNQSTDDINRRETELEDARQKFRSVLVEATVKLDELVKKIGKAVEDSKPYWEARRVARQAQLEAQKATQDFQRATEVLRAAKETISLAEQRLLEDDKRQFDSAWQEMLNHATQRVMEAEQTKTRSELVHKETAARYNAAMGRMRQLEKKLKRAINKSKPYFELKAKYYVQLEQLKKTVDDLQAKLTLAKGEYKMALKNLEMISDEIHEAAASSAM

GEF activity: Mant-GDP release from Rab11a by fluorescence, with GppNHp (%, relative to wild type) [6]: 50
B2: SH3BP5-RA E251A (domain or fragment)
chain: B1 chain with E211A

binding result [7]: binds
B3: Rab11a (1–173) (domain or fragment, human, UniProt P62491 1-173, looked up)
chain: MGTRDDEYDYLFKVVLIGDSGVGKSNLLSRFTRNEFNLESKSTIGVEFATRSIQVDGKTIKAQIWDTAGQERYRAITSAYYRGAVGALLVYDIAKHLTYENVERWLKELRDHADSNIVIMLVGNKSDLRHLRAVPTDEARAFAEKNGLSFIETSALDSTNVEAAFQTILTEIY
notes: human Rab11a, residues 1–173; Nucleotide-free in the complex structure (a phosphate ion on the P loop); loaded with Mant-GDP in the GEF assay; source: E. coli Rosetta (DE3), purified (Ni-NTA, Ulp1 cleavage, Superdex200, second Ni-NTA); not shown: His6-SUMO, N-terminal, cleaved
